According to US20250025478:

What was measured:
[1] = molecular target: 6×His-CYLD (UniProt Q9NQC7)
[2] = molecular target: GST-SPATA2 (UniProt Q9UM82)
[3] = tested on: 3×-FLAG-RNF213

6×His-CYLD, sequence (Q9NQC7 whole entry): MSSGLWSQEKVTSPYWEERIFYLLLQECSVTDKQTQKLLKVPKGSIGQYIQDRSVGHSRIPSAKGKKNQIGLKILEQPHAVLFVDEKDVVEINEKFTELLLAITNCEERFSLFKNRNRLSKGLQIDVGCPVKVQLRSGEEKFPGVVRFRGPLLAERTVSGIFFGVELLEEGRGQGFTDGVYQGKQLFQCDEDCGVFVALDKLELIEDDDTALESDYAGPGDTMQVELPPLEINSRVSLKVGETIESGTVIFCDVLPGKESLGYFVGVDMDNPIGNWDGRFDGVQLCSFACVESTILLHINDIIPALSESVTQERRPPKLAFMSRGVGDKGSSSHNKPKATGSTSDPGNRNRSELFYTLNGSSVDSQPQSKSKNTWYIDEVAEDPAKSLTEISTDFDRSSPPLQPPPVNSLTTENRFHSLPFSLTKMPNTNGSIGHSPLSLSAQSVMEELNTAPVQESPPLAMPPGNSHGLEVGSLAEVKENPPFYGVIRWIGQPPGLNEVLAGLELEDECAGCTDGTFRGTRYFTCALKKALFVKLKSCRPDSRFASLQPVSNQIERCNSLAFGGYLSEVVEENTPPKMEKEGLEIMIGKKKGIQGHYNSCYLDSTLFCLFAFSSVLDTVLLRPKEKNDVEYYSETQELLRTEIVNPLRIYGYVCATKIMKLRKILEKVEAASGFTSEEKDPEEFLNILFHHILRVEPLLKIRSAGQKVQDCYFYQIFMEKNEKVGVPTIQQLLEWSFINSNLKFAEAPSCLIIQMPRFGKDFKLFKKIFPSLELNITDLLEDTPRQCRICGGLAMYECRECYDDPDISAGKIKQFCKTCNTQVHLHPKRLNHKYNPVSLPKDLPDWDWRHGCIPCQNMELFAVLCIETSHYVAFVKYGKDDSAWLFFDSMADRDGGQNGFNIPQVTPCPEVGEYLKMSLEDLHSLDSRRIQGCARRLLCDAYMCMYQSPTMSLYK
GST-SPATA2, sequence (Q9UM82 whole entry): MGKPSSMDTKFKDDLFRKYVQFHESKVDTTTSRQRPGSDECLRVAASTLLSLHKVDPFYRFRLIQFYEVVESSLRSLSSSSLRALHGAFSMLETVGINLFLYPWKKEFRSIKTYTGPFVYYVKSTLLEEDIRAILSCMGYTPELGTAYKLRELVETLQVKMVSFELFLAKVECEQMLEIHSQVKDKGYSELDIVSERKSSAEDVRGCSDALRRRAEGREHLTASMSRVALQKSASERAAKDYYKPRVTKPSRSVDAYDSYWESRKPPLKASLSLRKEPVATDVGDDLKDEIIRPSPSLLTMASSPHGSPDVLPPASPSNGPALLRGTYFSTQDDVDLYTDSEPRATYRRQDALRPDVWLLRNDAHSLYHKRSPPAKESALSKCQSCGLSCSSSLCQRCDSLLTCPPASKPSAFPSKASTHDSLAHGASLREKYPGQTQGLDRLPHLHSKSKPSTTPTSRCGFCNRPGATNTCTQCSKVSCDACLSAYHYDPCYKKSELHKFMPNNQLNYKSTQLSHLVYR

Row | Substance | in vitro ubiquitylation assay (UBE1, UBE2L3, HA-Ub) [1] | in vitro ubiquitylation assay (UBE1, UBE2L3, HA-Ub) [2] | in vitro dephosphorylation of ABL1-phosphorylated RNF213 [3]
1 | 3×-FLAG-RNF213^H4509A | There was no significant ubiquitylation of CYLD or SPATA2 when an RZ mutant ("RZ-dead") form of RNF213 (RNF213^H4509A) was tested | There was no significant ubiquitylation of CYLD or SPATA2 when an RZ mutant ("RZ-dead") form of RNF213 (RNF213^H4509A) was tested | 
2 | recombinant GST-PTP1B |  |  | GST-PTP1B dephosphorylated ABL1-phosphorylated RNF213
3 | 3×-FLAG-RNF213 | SPATA2 and CYLD, when tested alone or in equimolar concentrations, were ubiquitinated by 3×FLAG-RNF213 | SPATA2 and CYLD, when tested alone or in equimolar concentrations, were ubiquitinated by 3×FLAG-RNF213 | 
4 | 3×-FLAG-RNF213^H4014A | both proteins showed increased ubiquitylation when the RING mutant RNF213^H4014A (RING-dead) was assayed (compared with WT RNF213) | both proteins showed increased ubiquitylation when the RING mutant RNF213^H4014A (RING-dead) was assayed (compared with WT RNF213) | 
5 | 3×-FLAG-RNF213^H4014A/H4509A | RING/RZ-dead was unable to ubiquitylate CYLD/SPATA2 | RING/RZ-dead was unable to ubiquitylate CYLD/SPATA2 | 
